Substitutions are numbered along the chain they refer to. Numbers in names are those of the source. Blank lines part the entries; values can stand above or below the binder they belong to.
What was measured:
[1] = molecular target: T1, mouse CD200R1 protein (R&D systems, 2554-CD) (mouse, UniProt Q9ES57 26-238, limits assumed); assay: ELISA, plate-bound mouse CD200R1 (2 ug/mL), IgG 0.0192-300 nM, OD 450 nm; panel 'mouse CD200R1'
T1 construct: Bought; construct not described
T1 sequence (looked up): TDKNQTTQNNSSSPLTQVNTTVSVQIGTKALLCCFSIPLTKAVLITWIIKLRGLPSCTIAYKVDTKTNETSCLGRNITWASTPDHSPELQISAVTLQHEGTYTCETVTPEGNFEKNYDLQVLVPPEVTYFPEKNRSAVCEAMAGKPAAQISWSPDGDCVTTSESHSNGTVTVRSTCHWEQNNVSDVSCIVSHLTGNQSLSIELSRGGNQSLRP
Protocol: 96-well plates were coated with human CD200R1 (R&D systems, 3414-CD) and mouse CD200R1 protein (R&D systems, 2554-CD) at a concentration of 2 μg/mL at 4° C. for 16 hours and then were blocked with 3% skim milk.
Color was developed with a TMB substrate solution (Thermo Scientific, 34029, 1-Step™ TMB-ELISA Ultra Substrate Solution). The color reaction was stopped with stop solution (Invitrogen, SS04, ELISA Stop Solution). The absorbance was measured at an optical density of 450 nm.

[2] = molecular target: T2, human CD200RLa (Sino Biological, 11620-H08H) recombinant protein (human, UniProt Q6Q8B3 24-239); assay: ELISA, plate-bound human CD200RLa (2 ug/mL), antibody 0.0192-300 nM, O.D 450 nm; panel 'recombinant human CD200RLa'
T2 construct: Bought; construct not described
T2 sequence (looked up): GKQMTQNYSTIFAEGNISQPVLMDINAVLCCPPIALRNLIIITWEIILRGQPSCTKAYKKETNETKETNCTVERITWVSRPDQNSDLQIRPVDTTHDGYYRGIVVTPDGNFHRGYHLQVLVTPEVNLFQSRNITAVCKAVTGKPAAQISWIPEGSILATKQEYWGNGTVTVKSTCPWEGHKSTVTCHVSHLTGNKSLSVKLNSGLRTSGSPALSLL
Protocol: (§1) 96-well plates were coated with human CD200RLa (Sino Biological, 11620-H08H) and monkey CD200RLa (Sino Biological, 11576-C02H) recombinant proteins at a concentration of 2 μg/mL at 4° C. for 16 hours, and blocked with 3% skim milk for 1 hour. […] Color was developed with a TMB substrate solution (Thermo Scientific, 34029, 1-Step™ Ultra TMB-ELISA Substrate Solution). The color reaction was stopped with stop solution (Invitrogen, SS04, ELISA Stop Solution).

[3] = molecular target: T3, monkey CD200RLa (Sino Biological, 11576-C02H) recombinant protein (monkey (cyno), UniProt A0A2K5W6R0 30-246); assay: ELISA, plate-bound monkey CD200RLa (2 ug/mL), antibody 0.0192-300 nM, O.D 450 nm; panel 'recombinant cynomolgus CD200RLa/Fc'
T3 construct: Bought; construct not described; also called cyno CD200RLa
T3 sequence: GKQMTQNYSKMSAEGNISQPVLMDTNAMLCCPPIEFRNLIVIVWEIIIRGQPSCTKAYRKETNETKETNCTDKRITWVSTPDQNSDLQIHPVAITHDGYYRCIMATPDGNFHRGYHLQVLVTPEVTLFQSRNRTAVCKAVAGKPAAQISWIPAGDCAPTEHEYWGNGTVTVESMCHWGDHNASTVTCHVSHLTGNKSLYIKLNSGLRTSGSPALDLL
Protocol: as §1

[4] = molecular target: T4, human CD200R1 expressed on cells (Jurkat-CD200R1, U937-CD200R1, HH cells) (human, UniProt Q8TD46 25-348); assay: flow cytometry, Jurkat-CD200R cells
T4 construct: whole, on cells; also called HH (CRL-2105); cell surface-expressed CD200R1
T4 sequence (looked up): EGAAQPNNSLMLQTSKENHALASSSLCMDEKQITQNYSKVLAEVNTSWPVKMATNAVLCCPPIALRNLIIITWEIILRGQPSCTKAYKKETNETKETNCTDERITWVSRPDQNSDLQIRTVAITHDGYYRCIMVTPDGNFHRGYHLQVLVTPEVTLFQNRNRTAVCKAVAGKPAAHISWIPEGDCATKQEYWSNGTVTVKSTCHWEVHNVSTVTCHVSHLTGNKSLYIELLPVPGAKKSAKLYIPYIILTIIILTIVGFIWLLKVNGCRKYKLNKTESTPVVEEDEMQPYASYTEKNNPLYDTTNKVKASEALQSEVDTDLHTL
Protocol: Two additional wells were treated with 10 μl of mouse IgG1K (BD, #555751) and 5 μl of commercial CD200R1 antibody (Biolegend, #329308) to determine CD200R1 expression on the cell line surface for cell quality control.
The antibodies were serially diluted 10-fold from a maximum concentration of 100 nM to 10 nM, 1 nM, […], and were added to the pre-seeded cells. After reaction for 1 hour at 4° C., the cells were treated with Alexa-647 goat anti-human IgG (H+L) cross-adsorbed secondary antibody (Invitrogen, #A21445) and incubated for an additional 30 minutes at 4° C. After washing twice with FACS buffer, flow cytometry was performed using a Novocyte Flow cytometer (Agilent). Using GraphPad Prism software, the EC₅₀ was determined using a nonlinear graph model of log (agonist) vs. response-variable slope, as shown in Table 32.

[5] = molecular target: T5, human CD200R1 with dual His-tags (human, UniProt Q8TD46 25-265); assay: SPR (Biacore CM5), His-tagged antigen captured by anti-histidine antibody, antibody as analyte, 1:1 Langmuir fit
T5 construct: Captured on the SPR chip by an anti-histidine antibody; also called hCD200R1-his; not shown: dual His-tags
T5 sequence (looked up): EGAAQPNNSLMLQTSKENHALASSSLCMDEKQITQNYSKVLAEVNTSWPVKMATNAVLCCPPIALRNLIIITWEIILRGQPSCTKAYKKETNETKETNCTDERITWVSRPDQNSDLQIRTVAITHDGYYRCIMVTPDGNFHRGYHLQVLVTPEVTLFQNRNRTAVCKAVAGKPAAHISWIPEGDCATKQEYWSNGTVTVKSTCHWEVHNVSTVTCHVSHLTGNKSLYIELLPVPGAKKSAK
Protocol: (§2) For the experiment, 30 μg/mL of an anti-histidine antibody was conjugated to a CM5 biacore chip via an amine bond while allowing to flow at 10 μl/min (10,000 RU). Then, 0.25 μg/mL of human or cynomolgus CD200R1 with dual His-tags was captured onto the completed chip for 60 seconds, and the binding ability of each antibody was analyzed. All experiments were performed by association of antibodies for 120 seconds and dissociation of antibodies for 600 seconds. The resulting graphs were fitted using a 1:1 Langmuir binding kinetic model (FIG. 16), and the kinetics of each antibody were calculated.

[6] = molecular target: T6, cynomolgus CD200R1 with dual His-tags (cynomolgus, UniProt G7NZT0 25-266); assay: as above
T6 construct: Captured on the SPR chip by an anti-histidine antibody; also called CCD200R1-his; cCD200R1-his; not shown: dual His-tags
T6 sequence: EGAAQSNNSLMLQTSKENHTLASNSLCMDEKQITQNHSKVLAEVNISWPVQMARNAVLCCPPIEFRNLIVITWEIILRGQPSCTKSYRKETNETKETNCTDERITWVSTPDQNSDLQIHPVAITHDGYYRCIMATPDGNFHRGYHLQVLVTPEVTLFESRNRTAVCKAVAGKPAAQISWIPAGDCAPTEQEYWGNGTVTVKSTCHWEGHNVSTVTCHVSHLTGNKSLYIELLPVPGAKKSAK
Protocol: as §2

[7] = molecular target: T7, Hybrid CD200R1 MH (mouse;human, UniProt Q9ES57;Q8TD46); assay: ELISA, plate-bound MH hybrid (1 ug/mL), antibody 0.0192-300 nM, O.D 450 nm; panel 'P001 MH domain-1)'
T7 construct: single domain; mouse D1 over human D2; also called MH hybrid domain; P001 MH domain
T7 sequence (hybrid extracellular part, looked up): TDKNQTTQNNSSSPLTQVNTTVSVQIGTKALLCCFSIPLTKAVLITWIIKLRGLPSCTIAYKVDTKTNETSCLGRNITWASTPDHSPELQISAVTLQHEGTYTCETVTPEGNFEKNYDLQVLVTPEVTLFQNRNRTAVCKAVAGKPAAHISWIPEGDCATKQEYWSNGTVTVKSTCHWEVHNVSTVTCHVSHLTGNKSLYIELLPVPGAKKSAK
Protocol: Recombinant proteins were produced from the extracellular Ig-like V-type domain and Ig-like C2-type domain of human CD200R1, each designed as human-mouse (HM hybrid domain) and mouse-human (MH hybrid domain) recombinant proteins. A 96-well plate was coated at a concentration of 1 μg/mL with each protein at 4° C. for 16 hours and blocked with 3% skim milk. […] After color development with TMB substrate solution (Thermo Scientific, 34029, 1-Step™ Ultra TMB-ELISA Substrate Solution), the color reaction was stopped with a stop solution (Invitrogen, SS04, ELISA Stop Solution), and the absorbance was measured at an O.D. of 450 nm.

[8] = molecular target: T4, human CD200R1 expressed on cells …; assay: flow cytometry on Jurkat-CD200R1 and HH cells, 500 nM antibody in IgG1 form
Protocol: The cells were washed by centrifugation at 130 g for 5 minutes. The cells were seeded onto 96-well round-bottom plates (SPL, #34296) at a density of 1×10⁵ cells/well in Flow cytometry staining buffer (Invitrogen, #00-4222-26) or FACS buffer. […] After incubation for 1 hour at 4° C., the cells were treated with Alexa-647 Goat anti-human IgG (H+L) cross-adsorbed secondary antibody (Invitrogen, #A21445) and incubated at 4° C. for an additional 30 minutes. After washing twice with FACS buffer, flow cytometry analysis was performed using a Novocyte Flow cytometer (Agilent).

B1: P001011 (IgG) (antibody, V domains shown)
VH: EVQLLESGGGLVQPGGSLRLSCAASGFTFSDYYMSWVRQAPGKGLEWVSWISSGGGSTYYADSVKGRFTISRDNSKNTLYLQMNSLGAEDTAVYYCARVRGTCNGTLCYYSNAMDVWGQGTLVTVSS
VL: QSVLTQPPSASGTPGQRVTISCTGSSSNIGSNDVSWYQQLPGTAPKLLIYDDNHRPSGVPDRFSGSKSGTSASLAISGLRSEDEADYYCGTWDASLNAYVFGGGTKLTVL
binding result [1]: no binding (tested: 300 nM)
binding result [2]: no binding (tested: 300 nM)
binding result [3]: no binding (tested: 300 nM)

B2: P001009v4 (antibody, V domains shown)
VH: EVQLLESGGGLVQPGGSLRLSCAASGFTFSSYDMSWVRQAPGKGLEWVSWISHGGGSIYYADSVKGRFTISRDNSKNTLYLQMNSLRAEDTAVYYCARDAPAYSAPLFDYWGQGTLVTVSS
VL: QSVLTQPPSASGTPGQRVTISCSGSSSNIGNKAVNWYQQLPGTAPKLLIYYDSNRPSGVPDRFSGSKSGTSASLAISGLRSEDEADYYCAAWDDSLSGYVFGGGTKLTVL
notes: P001009 with LC N31K (Kabat); also called P019001v4
EC50 [4]: 2.37 nM
Kd [5]: 1.04 nM
koff [5]: 0.007 s⁻¹
kon [5]: 6.74e+06 M⁻¹ s⁻¹
Kd [6]: 0.0822 nM
koff [6]: 0.000305 s⁻¹
kon [6]: 3.71e+06 M⁻¹ s⁻¹

B6: P001004 (IgG) (antibody, V domains shown)
VH: EVQLLESGGGLVQPGGSLRLSCAASGFTFSDYYMSWVRQAPGKGLEWVSGIYPGDGSIYYADSVKGRFTISRDNSKNTLYLQMNSLRAEDAAVYYCAKGLDLYEPMAFDYWGQGTLVTVSS
VL: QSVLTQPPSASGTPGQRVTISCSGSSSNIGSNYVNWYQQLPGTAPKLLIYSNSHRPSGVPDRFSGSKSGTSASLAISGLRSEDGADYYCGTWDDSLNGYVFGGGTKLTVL
MFI normalized to P001017 (chimeric OX108), % [8]: > 50%
binding result [1]: no binding (tested: 300 nM)
binding result [7]: no binding (tested: 300 nM)
binding result [2]: no binding (tested: 300 nM)

More lines, main results first:

binding result [1]: no binding (tested: 300 nM)
binding result [2]: no binding (tested: 300 nM)
B3: P001003 (IgG) (antibody, V domains shown)
VH: EVQLLESGGGLVQPGGSLRLSCAASGFTFSDYAMSWVRQAPGKGLEWVSAISHGGSSKYYADSVKGRFTISRDNSKNTLYLQMNSLRAEDTAVYYCARGPEVMLEFDYWGQGTLVTVSS
VL: B2 VL with S23T, K32N, N35T, Y51S, S53N, N54H, D94S
binding result [7]: no binding (tested: 300 nM)

binding result [2]: no binding (tested: 300 nM)
binding result [3]: no binding (tested: 300 nM)
B4: P001007 (IgG) (antibody, V domains shown)
VH: EVQLLESGGGLVQPGGSLRLSCAASGFTFSNYDMSWVRQAPGKGLEWVSAISYDNGNTYYADSVKGRFTISRDNSKNTLYLQMNSLRAEDTAVYYCARNRAWFDYWGQGTLVTVSS
VL: B2 VL with K32N, A33N, N35Y, N54Q, D94A, S97N

binding result [1]: no binding (tested: 300 nM)
binding result [2]: no binding (tested: 300 nM)
B5: P001005 (IgG) (antibody, V domains shown)
VH: EVQLLESGGGLVQPGGSLRLSCAASGFTFSGYDMSWVRQAPGKGLEWVSQIYPGNGSKYYADSVKGRFTISRDNSKNALYLQMNSLRAEDTAVYYCAKDLQTWTSRRFDYWGQGTLVTVSS
VL: B2 VL with K32N, A33D, Y51S, D52N, N54H, E84G, A90G, A91T, S97N
binding result [7]: no binding (tested: 300 nM)

— patent publication US20260263521A1 (AIMED BIO, published 2026)
